For one experiment, the target named is T1, CD137 (UniProt Q07011 24-186, limits assumed).
T1 construct: also called 4-1BB
Put plainly: FCM or ELISA (graded summary table). On the technique in general: ELISA stands for enzyme-linked immunosorbent assay.

Another experiment addresses T2, B7H3 (UniProt Q5ZPR3 29-466, limits assumed).
T2 sequence (looked up): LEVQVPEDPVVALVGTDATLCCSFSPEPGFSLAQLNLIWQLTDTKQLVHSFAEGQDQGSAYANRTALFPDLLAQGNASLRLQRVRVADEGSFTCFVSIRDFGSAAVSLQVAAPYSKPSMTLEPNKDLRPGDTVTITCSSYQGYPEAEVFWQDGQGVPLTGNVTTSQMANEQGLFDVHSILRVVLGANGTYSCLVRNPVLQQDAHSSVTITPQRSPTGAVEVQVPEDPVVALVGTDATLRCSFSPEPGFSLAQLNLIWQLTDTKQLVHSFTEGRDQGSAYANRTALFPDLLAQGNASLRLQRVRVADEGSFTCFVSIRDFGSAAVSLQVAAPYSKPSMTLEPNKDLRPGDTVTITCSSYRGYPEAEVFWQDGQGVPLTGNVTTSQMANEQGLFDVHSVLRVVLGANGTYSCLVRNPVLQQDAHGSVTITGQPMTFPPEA
Put plainly: FCM or ELISA (graded summary table).

Another experiment concerns the target T3, PD-L1 (human, UniProt Q9NZQ7 19-238, limits assumed).
T3 construct: The reporter assay used Raji cells expressing human PD-L1
Put plainly: FCM or ELISA.

The text below walks through data of US20250388669A1 (published 2025).

T3 sequence (Q9NZQ7 19-238 limits assumed): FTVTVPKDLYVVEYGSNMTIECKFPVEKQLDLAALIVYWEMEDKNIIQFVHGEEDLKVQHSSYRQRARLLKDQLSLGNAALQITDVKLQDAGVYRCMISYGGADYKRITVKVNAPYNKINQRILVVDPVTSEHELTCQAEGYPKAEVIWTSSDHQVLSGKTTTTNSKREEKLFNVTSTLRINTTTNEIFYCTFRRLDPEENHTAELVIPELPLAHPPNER

B1: Ly1963 (other)
chain 1: QVQLVQSGAEVKKPGASVKVSCKASGYTFTSYVMHWVRQKPGQGLEWIGYINPYNEGTESTDKFKGRATMTSDKSTSTVYMELSSLRSEDTAVYYCASIYYGYEGTYFGVWGQGTLVTVSSASTKGPSVFPLAPSSKSTSGGTAALGCLVKDYFPEPVTVSWNSGALTSGVHTFPAVLQSSGLYSLSSVVTVPSSSLGTQTYICNVNHKPSNTKVDKKVEPKSCGGGGSGGGGSGGGGSGGGGSEVQLVESGGGLVQPGGSLRLSCAASGFTFSTYAMNWVRQAPGKGLEWVGRIRSKYNNYATYYADSVKGRFTISRDDSKNSLYLQMNSLKTEDTAVYYCVRHGNFGNSYVSWFAYWGQGTLVTVSSGGGGSDKTHTCPPCPAPEAAGPSVFLFPPKPKDTLMISRTPEVTCVVVDVSHEDPEVKFNWYVDGVEVHNAKTKPREEQYNSTYRVVSVLTVLHQDWLNGKEYKCKVSNKALPAPIEKTISKAKGQPREPQVYTLPPSREEMTKNQVSLWCLVKGFYPSDIAVEWESNGQPENNYKTTPPVLDSDGSFFLYSKLTVDKSRWQQGNVFSCSVMHEALHNHYTQKSLSLSPGGGGGSGGGGSGGGGSGGGGSQVQLVQSGAEVKKPGASVKVSCKASGYTFAGFEMHWVRQAPGQGLEWMGAIDPKTGGTDYNQKFKDRVTMTRDTSISTAYMELSRLRSDDTAVYYCARDLGYFDVWGQGTLVTVSS
chain 2: QVQLVQSGAEVKKPGASVKVSCKASGYTFTSYVMHWVRQKPGQGLEWIGYINPYNEGTESTDKFKGRATMTSDKSTSTVYMELSSLRSEDTAVYYCASIYYGYEGTYFGVWGQGTLVTVSSASTKGPSVFPLAPSSKSTSGGTAALGCLVKDYFPEPVTVSWNSGALTSGVHTFPAVLQSSGLYSLSSVVTVPSSSLGTQTYICNVNHKPSNTKVDKKVEPKSCGGGGSGGGGSGGGGSGGGGSQAVVTQEPSLTVSPGGTVTLTCRSSTGAVTTSNYANWVQQKPGQAPRGLIGGTNKRAPWTPARFSGSLLGGKAALTITGAQAEDEADYYCALWYSNLWVFGGGTKLTVLGGGGSDKTHTCPPCPAPEAAGPSVFLFPPKPKDTLMISRTPEVTCVVVDVSHEDPEVKFNWYVDGVEVHNAKTKPREEQYNSTYRVVSVLTVLHQDWLNGKEYKCKVSNKALPAPIEKTISKAKGQPREPQVYTLPPSREEMTKNQVSLSCAVKGFYPSDIAVEWESNGQPENNYKTTPPVLDSDGSFFLVSKLTVDKSRWQQGNVFSCSVMHEALHNHYTQKSLSLSPGGGGGSGGGGSGGGGSGGGGSDIQMTQSPSSLSASVGDRVTITCRASQDIRSNLNWYQQKPGGAVKLLIYYTSRLHSGVPSRFSGSGSGTDYTLTISSLQPEDFATYFCQQSEKLPRTFGGGTKVEIR
light: EIVLTQSPATLSLSPGERATLSCRASSSVSYMHWYQQKPGQAPRPWIYATSNLASGIPARFSGSRSGTDYTLTISSLEPEDFAVYYCQQWSSNTLTFGGGTKVEIKRTVAAPSVFIFPPSDEQLKSGTASVVCLLNNFYPREAKVQWKVDNALQSGNSQESVTEQDSKDSTYSLSSTLTLSKADYEKHKVYACEVTHQGLSSPVTKSFNRGEC
notes: Tri-specific antibody B7H3 (two Fabs) / CD3 (central Fv) / CD137 (terminal Fv)
On to B1, for which the binding result with CD137 and with B7H3 was “binds” each time.

B2: Ly2122 (bispecific antibody, human IgG1, kappa)
chain 1: QVQLVQSGAEVKKPGASVKVSCKASGYTFTSYVMHWVRQKPGQGLEWIGYINPYNEGTESTDKFKGRATMTSDKSTSTVYMELSSLRSEDTAVYYCASIYYGYEGTYFGVWGQGTLVTVSSASTKGPSVFPLAPSSKSTSGGTAALGCLVKDYFPEPVTVSWNSGALTSGVHTFPAVLQSSGLYSLSSVVTVPSSSLGTQTYICNVNHKPSNTKVDKKVEPKSCDKTHTCPPCPAPEAAGPSVFLFPPKPKDTLMISRTPEVTCVVVDVSHEDPEVKFNWYVDGVEVHNAKTKPREEQYNSTYRVVSVLTVLHQDWLNGKEYKCKVSNKALPAPIEKTISKAKGQPREPQVYTLPPSREEMTKNQVSLWCLVKGFYPSDIAVEWESNGQPENNYKTTPPVLDSDGSFFLYSKLTVDKSRWQQGNVFSCSVMHEALHNHYTQKSLSLSPGGGGGSGGGGSGGGGSGGGGSQVQLVQSGAEVKKPGASVKVSCKASGYTFAGFEMHWVRQAPGQGLEWMGAIDPKTGGTDYNQKFKDRVTMTRDTSISTAYMELSRLRSDDTAVYYCARDLGYFDVWGQGTLVTVSS
chain 2: QVQLVQSGAEVKKPGASVKVSCKASGYTFTSYVMHWVRQKPGQGLEWIGYINPYNEGTESTDKFKGRATMTSDKSTSTVYMELSSLRSEDTAVYYCASIYYGYEGTYFGVWGQGTLVTVSSASTKGPSVFPLAPSSKSTSGGTAALGCLVKDYFPEPVTVSWNSGALTSGVHTFPAVLQSSGLYSLSSVVTVPSSSLGTQTYICNVNHKPSNTKVDKKVEPKSCDKTHTCPPCPAPEAAGPSVFLFPPKPKDTLMISRTPEVTCVVVDVSHEDPEVKFNWYVDGVEVHNAKTKPREEQYNSTYRVVSVLTVLHQDWLNGKEYKCKVSNKALPAPIEKTISKAKGQPREPQVYTLPPSREEMTKNQVSLSCAVKGFYPSDIAVEWESNGQPENNYKTTPPVLDSDGSFFLVSKLTVDKSRWQQGNVFSCSVMHEALHNRFTQKSLSLSPGGGGGSGGGGSGGGGSGGGGSDIQMTQSPSSLSASVGDRVTITCRASQDIRSNLNWYQQKPGGAVKLLIYYTSRLHSGVPSRFSGSGSGTDYTLTISSLQPEDFATYFCQQSEKLPRTFGGGTKVEIR
light: B1 light
notes: Bispecific B7H3 (two Fabs) / CD137 (terminal Fv)
Consider B2, for which the binding result with CD137 and in the experiment with B7H3 was “binds” in each case.

B3: Ly2444 (bispecific antibody, human IgG1, kappa)
chain 1: QVQLVQSGAEVKKPGASVKVSCKASGYTFTDFWMSWVRQAPGQGLEWMGQIYPNTGTTHSNEKFKGRVTMTRDTSTSTVYMELSSLRSEDTAVYYCARSYHISTTPNWFAYWGQGTLVTVSSASTKGPSVFPLAPSSKSTSGGTAALGCLVKDYFPEPVTVSWNSGALTSGVHTFPAVLQSSGLYSLSSVVTVPSSSLGTQTYICNVNHKPSNTKVDKKVEPKSCDKTHTCPPCPAPEAAGPSVFLFPPKPKDTLMISRTPEVTCVVVDVSHEDPEVKFNWYVDGVEVHNAKTKPREEQYNSTYRVVSVLTVLHQDWLNGKEYKCKVSNKALPAPIEKTISKAKGQPREPQVYTLPPSREEMTKNQVSLWCLVKGFYPSDIAVEWESNGQPENNYKTTPPVLDSDGSFFLYSKLTVDKSRWQQGNVFSCSVMHEALHNHYTQKSLSLSPGGGGGSGGGGSGGGGSGGGGSEVQLVESGGGLVQPGGSLRLSCAASGFTFTNYGLHWVRQAPGKGLEWVSSISPSGGVTYYRDSVKGRFTISRDNSKNTLYLQMNSLRAEDTAVYYCAKPFLGWGGANWIAHWGQGTLVTVSS
chain 2: QVQLVQSGAEVKKPGASVKVSCKASGYTFTDFWMSWVRQAPGQGLEWMGQIYPNTGTTHSNEKFKGRVTMTRDTSTSTVYMELSSLRSEDTAVYYCARSYHISTTPNWFAYWGQGTLVTVSSASTKGPSVFPLAPSSKSTSGGTAALGCLVKDYFPEPVTVSWNSGALTSGVHTFPAVLQSSGLYSLSSVVTVPSSSLGTQTYICNVNHKPSNTKVDKKVEPKSCDKTHTCPPCPAPEAAGPSVFLFPPKPKDTLMISRTPEVTCVVVDVSHEDPEVKFNWYVDGVEVHNAKTKPREEQYNSTYRVVSVLTVLHQDWLNGKEYKCKVSNKALPAPIEKTISKAKGQPREPQVYTLPPSREEMTKNQVSLSCAVKGFYPSDIAVEWESNGQPENNYKTTPPVLDSDGSFFLVSKLTVDKSRWQQGNVFSCSVMHEALHNRFTQKSLSLSPGGGGGSGGGGSGGGGSGGGGSDIQMTQSPSSLSASVGDRVTITCLASEDISNDLAWYQQKPGKAPKLLIYFVDRLLDGVPSRFSGSGSGTDFTLTISSLQPEDFATYYCQQSYKYPPTFGQGTKLEIK
light: DIQMTQSPSSLSASVGDRVTITCKASQNVYKKLEWYQQKPGKVPKVLIYHTNILQTGVPSRFSGSGSGTDYTLTISSLQPEDVATYYCYQWNSGPTFGGGTKVEIKRTVAAPSVFIFPPSDEQLKSGTASVVCLLNNFYPREAKVQWKVDNALQSGNSQESVTEQDSKDSTYSLSSTLTLSKADYEKHKVYACEVTHQGLSSPVTKSFNRGEC
notes: PD-L1/CD40: two PD-L1 Fabs (Ly076), terminal CD40 Fv (TM559)
Consider B3, for which the binding result with PD-L1 is recorded as “binds”.
